The series deals with the molecule itself. In words: SAXS.

B1: Ipomoea batatas BAM5 (sweet potato beta-amylase) (enzyme)
chain: APIPGVMPIGNYVSLYVMLPLGVVNADNVFPDKEKVEDELKQVKAGGCDGVMVDVWWGIIEAKGPKQYDWSAYRELFQLVKKCGLKIQAIMSFHQCGGNVGDAVFIPIPQWILQIGDKNPDIFYTNRAGNRNQEYLSLGVDNQRLFQGRTALEMYRDFMESFRDNMADFLKAGDIVDIEVGCGAAGELRYPSYPETQGWVFPGIGEFQCYDKYMVADWKEAVKQAGNADWEMPGKGAGTYNDTPDKTEFFRPNGTYKTDMGKFFLTWYSNKLIIHGDQVLEEANKVFVGLRVNIAAKVSGIHWWYNHVSHAAELTAGFYNVAGRDGYRPIARMLARHHATLNFTCLEMRDSEQPAEAKSAPQELVQQVLSSGWKEYIDVAGENALPRYDATAYNQMLLNVRPNGVNLNGPPKLKMSGLTYLRLSDDLLQTDNFELFKKFVKKMHADLDPSPNAISPAVLERSNSAITIDELMEATKGSRPFPWYDVTDMPVDGSNPFD
Usually stoichiometry N stands for the number of molecules, sites or subunits per partner or assembly. Regarding B1, the “stoichiometry N” value worked out at 4.

Source of the values: doi:10.1101/2021.10.14.464379 (bioRxiv, 2021).
